Experimental data from US20130183315A1 (GLENMARK PHARMACEUTICALS S A, published 2013).
Positions count from the first letter of the chain named.

T1: recombinant human OX40-his protein (human, UniProt P43489 29-214)
T1 construct: Secretion driven by the native signal peptide of human TNFRSF4; also called recombinant histidine tagged human OX40 receptor extracellular domain; recombinant monovalent human OX40 receptor extracellular domain
T1 sequence: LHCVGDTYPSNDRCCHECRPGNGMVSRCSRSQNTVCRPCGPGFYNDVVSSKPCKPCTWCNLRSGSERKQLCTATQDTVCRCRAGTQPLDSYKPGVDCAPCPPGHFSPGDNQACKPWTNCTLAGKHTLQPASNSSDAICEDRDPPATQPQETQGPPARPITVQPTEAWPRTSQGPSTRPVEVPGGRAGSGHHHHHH

T2: chimeric RRHH OX40 protein (Fc fusion) (human-rat chimera; human)
T2 chain (part 1 of 2): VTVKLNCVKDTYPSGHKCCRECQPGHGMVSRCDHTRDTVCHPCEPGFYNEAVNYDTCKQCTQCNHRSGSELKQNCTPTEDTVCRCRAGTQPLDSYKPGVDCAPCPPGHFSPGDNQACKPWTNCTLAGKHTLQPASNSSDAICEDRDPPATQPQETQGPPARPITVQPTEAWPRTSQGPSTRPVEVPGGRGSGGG
T2 chain (part 2 of 2): SAHHHHHH

T3: human OX40 expressed on the surface of human activated lymphocytes (human, UniProt P43489 29-277)
T3 sequence: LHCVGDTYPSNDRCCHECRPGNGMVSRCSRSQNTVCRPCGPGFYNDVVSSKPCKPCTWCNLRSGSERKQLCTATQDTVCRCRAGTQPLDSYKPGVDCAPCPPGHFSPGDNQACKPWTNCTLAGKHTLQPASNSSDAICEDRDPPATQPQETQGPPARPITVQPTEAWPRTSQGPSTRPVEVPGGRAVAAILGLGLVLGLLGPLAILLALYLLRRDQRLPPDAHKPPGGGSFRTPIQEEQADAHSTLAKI

B1: VH3/VL2 (antibody, human IgG1, kappa, V domains shown)
VH: QVTLKESGPALVKPTQTLTLTCTFSGFSLSTSGMGVSWIRQPPGKALEWIAHIWWDDDKYYSTSLKTRLTISKDTSKNQVVLTMTNMDPVDTATYYCARIDWDGFAYWGQGTLVTVSS
VL: EIVLTQSPATLSLSPGERATLSCRASSSVSYYMAWYQQKPGQAPRLLIYATSNRATGIPARFSGSGSGTDFTLTISSLEPEDFAVYYCQQWSSNPWTFGQGTKVEIKR
notes: Humanized, IGHG1, kappa
B2: VH2/VL3 (antibody, human IgG1, kappa, V domains shown)
VH: B1 VH with T23S, H52R
VL: B1 VL with M33L, F71Y
notes: Humanized, IGHG1, kappa
B3: VH1/VL1 antibody (antibody, human IgG1, kappa, V domains shown)
VH: B1 VH with H52R
VL: B1 VL with M33L
notes: Humanized, IGHG1, kappa; also called first humanized antibody
B4: VH3/VL3 (antibody, human IgG1, kappa, V domains shown)
VH: B1 VH
VL: B1 VL with M33L, F71Y
notes: Humanized, IGHG1, kappa
B5: VH1/VL2 (antibody, human IgG1, kappa, V domains shown)
VH: B1 VH with H52R
VL: B1 VL
notes: Humanized, IGHG1, kappa
B6: VH2/VL1 (antibody, human IgG1, kappa, V domains shown)
VH: B1 VH with T23S, H52R
VL: B1 VL with M33L
notes: Humanized, IGHG1, kappa
B7: VH3/VL1 (antibody, human IgG1, kappa, V domains shown)
VH: B1 VH
VL: B1 VL with M33L
notes: Humanized, IGHG1, kappa
B8: VH1/VL3 (antibody, human IgG1, kappa, V domains shown)
VH: B1 VH with H52R
VL: B1 VL with M33L, F71Y
notes: Humanized, IGHG1, kappa
B9: VH2/VL2 (antibody, human IgG1, kappa, V domains shown)
VH: B1 VH with T23S, H52R
VL: B1 VL
notes: Humanized, IGHG1, kappa
B10: VH6/VL9 antibody (antibody, human IgG1, kappa, V domains shown)
VH: B1 VH with T23S, S37G, S62N, S64A
VL: EIVLTQSPATLSLSPGERATLSCRASSSVSYMHWYQQKPGQAPRPWIYATSNRATGIPARFSGSGSGTDYTLTISSLEPEDFAVYYCQQWSSNPWTFGQGTKVEIKR
notes: Humanized, IGHG1, kappa; also called humanized anti-OX40 antibody VH6/VL9; VH6/VL9 IGHG1 format
B11: VH4/VL4 (antibody, human IgG1, kappa, V domains shown)
VH: B1 VH with T23S
VL: B1 VL with F71Y
notes: Humanized, IGHG1, kappa
B12: VH5/VL6 (antibody, human IgG1, kappa)
heavy: not shown
light: QIVLTQSPATLSLSPGERATLSCRASSSVSYYMAWYQQKPGQAPRPWIYATSNRATGIPARFSGSGSGTDYTLTISSLEPEDFAVYYCQQWSSNPWTFGQGTKVEIKRTVAAPSVFIFPPSDEQLKSGTASVVCLLNNFYPREAKVQWKVDNALQSGNSQESVTEQDSKDSTYSLSSTLTLSKADYEKHKVYACEVTHQGLSSPVTKSFNRGEC
notes: Humanized, IGHG1, kappa
B13: VH5/VL4 (antibody, human IgG1, kappa, V domains shown)
VH: B1 VH with T23S, S62N, S64A
VL: B1 VL with F71Y
notes: Humanized, IGHG1, kappa
B14: VH5/VL5 (antibody, human IgG1, kappa)
heavy: not shown
light: B12 light with Q1E
notes: Humanized, IGHG1, kappa
B15: VH7/VL8 (antibody, human IgG1, kappa, V domains shown)
VH: B1 VH with T23S, S37G, I50L, S62N, S64A
VL: B10 VL with P45L, W46L
notes: Humanized, IGHG1, kappa
B16: VH7/VL11 (antibody, human IgG1, kappa, V domains shown)
VH: B1 VH with T23S, S37G, I50L, S62N, S64A
VL: B10 VL with P45L, W46L, R53L, T55S
notes: Humanized, IGHG1, kappa
B17: VH7/VL7 (antibody, human IgG1, kappa, V domains shown)
VH: B1 VH with T23S, S37G, I50L, S62N, S64A
VL: B10 VL with H33A, P45L, W46L
notes: Humanized, IGHG1, kappa
B18: VH5/VL9 (antibody, human IgG1, kappa, V domains shown)
VH: B1 VH with T23S, S62N, S64A
VL: B10 VL
notes: Humanized, IGHG1, kappa
B19: VH4/VL9 (antibody, human IgG1, kappa, V domains shown)
VH: B1 VH with T23S
VL: B10 VL
notes: Humanized, IGHG1, kappa
B20: VH7/VL9 (antibody, human IgG1, kappa, V domains shown)
VH: B1 VH with T23S, S37G, I50L, S62N, S64A
VL: B10 VL
notes: Humanized, IGHG1, kappa; also called humanized variant VH7/VL9

target: T1, recombinant human OX40-his protein; experiment: SPR (BIAcore): antibody captured on protein A chip, human OX40-his as analyte
Description: (§1) Kinetic binding affinity constants (KD) were measured on protein-A captured antibody using recombinant histidine tagged human OX40 receptor extracellular domain as described in Example 1 as analyte. Measurements were conducted on a BIAcore 2000 (GE Healthcare—BIAcore, Uppsala, Sweden) at room temperature, and analyzed with the BiaEvaluation software (BIAcore; v4.1).
(§2) A CMS research grade sensor chip (GE Healthcare Europe GmbH, Glattbrugg, Switzerland; BR-1000-14) was activated by injecting 35 μl of a 1:1 N-hydroxysulfosuccinimide (NHS)/1-Ethyl-3-[3-dimethylaminopropyl]carbodiimide Hydrochloride (EDC) solution (v/v; 5 μl/min flow-rate; on flow paths 1 and 2). Protein-A (ref. P7837; Sigma-Aldrich Chemie GmbH, Buchs, Switzerland) was diluted to a final concentration of 50 μg/ml in acetate buffer pH 4.5 (GE, BR-1003-50; one pH unit below pI) and subsequently immobilized on the previously activated CMS sensor chip by injecting 35 μl on both flow path 1 and 2 (5 μl/min); this corresponded to approximately 1500 response units (RUs). The protein-A-CMS sensor chip was then deactivated by injecting 35 μl of ethanolamine solution (5 μl/min). Finally, two injections of 10 μl of glycine solution (GE, ref BR-1003-54; 10 mM; pH 1.5) were performed to release non-crosslinked protein-A molecules.
(§3) 10 μl of this diluted stock were subsequently injected on the flow-path 2 of the protein-A CMS chip (30 μl/min) to reach 200-250 RUs. Following this capture step, the recombinant histidine tagged human OX40 receptor extracellular domain was injected at different concentrations (50 nM to 0.4 μM) on the flow-path 1 and 2 (flow-path 1 being used as reference) at a 30 μl/min flow rate. After each binding event, surface was regenerated with glycine buffer pH 1.5 injected for 1 min (10 μl/min)

binding result | Binder
no binding (tested: not printed) | B1
no binding (tested: not printed) | B2
no binding (tested: not printed) | B3
no binding (tested: not printed) | B4
no binding (tested: not printed) | B5
no binding (tested: not printed) | B6
no binding (tested: not printed) | B7
no binding (tested: not printed) | B8
no binding (tested: not printed) | B9

target: T4, rat OX40 extracellular region Fc fusion protein (rat; human, UniProt P15725 20-210); experiment: ELISA on coated OX40 Fc fusion (2 µg/mL), anti-human F(ab')2-HRP detection
T4 construct: also called RRRR; rat OX40 protein
Description: (§4) Rat and human-rat OX40 proteins were formatted as Fc fusions proteins according to the method described in Example 1. For the ELISA, OX40 proteins were coated at 2 μg/mL, in PBS, overnight at 4° C. on high binding 96-well plates (Coastar). The plates were blocked with PBS 2% Bovine Serum Albumin (BSA) before incubation with the VH6/VL9 antibody or isotype control antibody. The plates were then washed and incubated with goat-anti human Ig F(ab′)2 fragment specific-HRP (Jackson ImmunoResearch Europe Ltd, Newmarket, UK). After washing, the plates were incubated with TMB substrate (Bio-Rad Laboratories AG, Reinach, Switzerland) to reveal antibody binding. The reaction was stopped by adding 2M H₂SO₄ and the optical density was read at 450 nm (OD 450 nm) on a Synergy HT2 spectrophotometer (Biotek, USA; distributor: WITTEC AG, Littau, Switzerland).
(§5) A binding ELISA was performed to test the reactivity of the VH6/VL9 antibody on human OX40 extracellular region (abbreviated HHHH with SEQ ID NO: 11), rat OX40 extracellular region (abbreviated RRRR with SEQ ID NO: 52), and on four human-rat chimeric proteins: RHRR (SEQ ID NO: 53), HRRR (SEQ ID NO: 54), HHRR (SEQ ID NO: 55), and RRHH (SEQ ID NO: 56).

binding result | Binder
no binding (tested: not printed) | B10

Target: T2, chimeric RRHH OX40 protein (Fc fusion)
Experiment: as above
Description: as §4, §5

binding result | Binder
no binding (tested: not printed) | B10

target: T1, recombinant human OX40-his protein; experiment: SPR (BIAcore): antibody captured on protein A chip, human OX40-his as analyte; analyte concentration not given
Description: as §1, §2, §3

binding result | Binder
binds | B11
binds | B12
binds | B13
binds | B14
binds | B15
binds | B16
binds | B17

target: T1, recombinant human OX40-his protein; experiment: SPR (BIAcore): antibody captured on protein A chip, human OX40-his as analyte; traces aligned at 0 s, falling phase only
Description: as §1
as §2, with “molecules. […]” for “molecules.”

binding result | Binder
binds | B18
binds | B19

target: T3, human OX40 expressed on the surface of …; experiment: cell-based or functional assay

inhibition of mixed lymphocyte reaction (3H thymidine incorporation), EC50 [µg/mL] | Binder
~0.1 | B10

target: T1, recombinant human OX40-his protein; experiment: SPR, antibody captured on protein A, OX40-his as analyte
Description: as §1, §2, §3

Kd [nM] | koff [s⁻¹] | kon [M⁻¹ s⁻¹] | Binder
70 | 0.00312 | 44500 | B20
101 | 0.00356 | 35400 | B10
